Reference: patent US20130236458A1 (AbbVie / Abbott, published 2013)
Positions count from the first letter of the chain named. Each block holds one binder with its values, some of them ahead of it.

How the values were obtained:
[1] = biological target: T1, Recombinant Human IL-17 (human, UniProt Q16552 20-155, limits assumed); experiment: SPR (Biacore)
T1 construct: bought reagent; also called IL-17A
T1 sequence (looked up): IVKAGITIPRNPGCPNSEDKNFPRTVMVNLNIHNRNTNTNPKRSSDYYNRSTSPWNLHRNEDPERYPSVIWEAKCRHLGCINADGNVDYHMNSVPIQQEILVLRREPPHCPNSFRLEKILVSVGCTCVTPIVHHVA
Experimental: (§1) The BIACORE assay (Biacore, Inc, Piscataway, N.J.) determined the affinity of antibodies or DVD-Ig with kinetic measurements of on-rate and off-rate constants. Binding of antibodies or DVD-Ig proteins to a target antigen (for example, a purified recombinant target antigen) was determined by surface plasmon resonance-based measurements with a Biacore®1000 or 3000 instrument (Biacore® AB, Uppsala, Sweden) using running HBS-EP (10 mM HEPES [pH 7.4], 150 mM NaCl, 3 mM EDTA, and 0.005% surfactant P20) at 25° C. All chemicals were obtained from Biacore® AB (Uppsala, Sweden) or otherwise from a different source as described in the text. For example, approximately 5000 RU of goat anti-mouse IgG, (Fcγ), fragment specific polyclonal antibody (Pierce Biotechnology Inc, Rockford, Ill.) diluted in 10 mM sodium acetate (pH 4.5) was directly immobilized across a CM5 research grade biosensor chip using a standard amine coupling kit according to manufacturer's instructions and procedures at 25 μg/ml. Unreacted moieties on the biosensor surface were blocked with ethanolamine. Modified carboxymethyl dextran surface in flowcell 2 and 4 was used as a reaction surface. Unmodified carboxymethyl dextran without goat anti-mouse IgG in flow cell 1 and 3 was used as the reference surface. For kinetic analysis, rate equations derived from the 1:1 Langmuir binding model were fitted simultaneously to association and dissociation phases of all eight injections (using global fit analysis) with the use of Biaevaluation 4.0.1 software. Purified antibodies or DVD-Ig proteins were diluted in HEPES-buffered saline for capture across goat anti-mouse IgG specific reaction surfaces. Antibodies or DVD-Ig proteins to be captured as a ligand (25 μg/ml) were injected over reaction matrices at a flow rate of 5 μl/minute. The association and dissociation rate constants, kₒₙ (M⁻¹s⁻¹) and koff (s⁻¹) were determined under a continuous flow rate of 25 μl/minute. Rate constants were derived by making kinetic binding measurements at different antigen concentrations ranging from 10-200 nM. The equilibrium dissociation constant (M) of the reaction between antibodies or DVD-Ig proteins and the target antigen was then calculated from the kinetic rate constants by the following formula: KD=koff/kₒₙ. Binding was recorded as a function of time and kinetic rate constants were calculated.

[2] = biological target: T2, Recombinant Human IL-13 (human, UniProt P35225 35-146, limits assumed); experiment: SPR (Biacore)
T2 construct: bought reagent
Experimental: as §1

[3] = biological target: T1, Recombinant Human IL-17; experiment: cell-based or functional assay
[4] = biological target: T2, Recombinant Human IL-13; experiment: cell-based or functional assay

T2 sequence (P35225 35-146 limits assumed): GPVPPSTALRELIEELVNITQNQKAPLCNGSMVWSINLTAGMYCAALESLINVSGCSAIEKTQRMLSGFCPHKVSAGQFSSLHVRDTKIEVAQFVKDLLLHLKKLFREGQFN

B2: DVD2200 (bispecific antibody)
VH: EVQLVQSGAEVKKPGASVKVSCKASGYTFTSYWMHWVRQAPGQGLEWIGNINPKGGSNIYNEKFQGRVTMTRDTSISTAYMELSRLRSDDTAVYYCARLDYFGDSFDLWGQGTTVTVSSASTKGPSVFPLAPEVQLVQSGAEVKKPGESVKISCKASGGSFRSYGISWVRQAPGQGLEWMGGITHFFGITDYAQKFQGRVTITADESTTTAYMELSGLTSDDTAVYYCAREPNDFWNGYYDTHDFDSWGQGTTVTVSS
VL: DIQMTQSPSSLSASVGDRVTITCRASQGIRNYLNWYQQKPGKAPKLLIYYASNLEVGVPSRFSGSGSGTDYTLTISSLQPEDFATYYCQQDNRFPYTFGGGTKVEIKRTVAAPEIVLTQSPDFQSVTPKEKVTITCRASQNIGSELHWYQQKPDQSPKLLIKYASHSISGVPSRFSGSGSGTDFTLTINGLEAEDAATYYCHQSDTLPHTFGQGTKVDIKR
notes: DVD-Ig; also called DVD2200H; DVD2200L
- Kd [1]: 0.025 nM
- koff [1]: 4.6e-06 s⁻¹
- kon [1]: 180000 M⁻¹ s⁻¹
- Kd [2]: 0.045 nM
- koff [2]: 6e-05 s⁻¹
- kon [2]: 1.3e+06 M⁻¹ s⁻¹
- C-Terminal VD IL17 Neutralization Assay IC50 [3]: 0.0072 nM
- N-Terminal VD IL13 Neutralization Assay IC50 [4]: 0.096 nM

B5: DVD2199 (bispecific antibody)
VH: EVQLVQSGAEVKKPGESVKISCKASGGSFRSYGISWVRQAPGQGLEWMGGITHFFGITDYAQKFQGRVTITADESTTTAYMELSGLTSDDTAVYYCAREPNDFWNGYYDTHDFDSWGQGTTVTVSSASTKGPEVQLVQSGAEVKKPGASVKVSCKASGYTFTSYWMHWVRQAPGQGLEWIGNINPKGGSNIYNEKFQGRVTMTRDTSISTAYMELSRLRSDDTAVYYCARLDYFGDSFDLWGQGTTVTVSS
VL: EIVLTQSPDFQSVTPKEKVTITCRASQNIGSELHWYQQKPDQSPKLLIKYASHSISGVPSRFSGSGSGTDFTLTINGLEAEDAATYYCHQSDTLPHTFGQGTKVDIKRTVAAPSVFIFPPDIQMTQSPSSLSASVGDRVTITCRASQGIRNYLNWYQQKPGKAPKLLIYYASNLEVGVPSRFSGSGSGTDYTLTISSLQPEDFATYYCQQDNRFPYTFGGGTKVEIKR
notes: DVD-Ig; also called DVD2199H; DVD2199L
- Kd [1]: 0.019 nM
- koff [1]: 4.4e-05 s⁻¹
- kon [1]: 2.3e+06 M⁻¹ s⁻¹
- Kd [2]: 0.026 nM
- koff [2]: 3.4e-05 s⁻¹
- kon [2]: 1.3e+06 M⁻¹ s⁻¹
- N-Terminal VD IL17 Neutralization Assay IC50 [3]: 0.0102 nM
- C-Terminal VD IL13 Neutralization Assay IC50 [4]: 0.088 nM

B6: DVD2195 (bispecific antibody)
VH: EVQLVQSGAEVKKPGSSVKVSCKASGGSFGGYGIGWVRQAPGQGLEWMGGITPFFGFADYAQKFQGRVTITADESTTTAYMELSGLTSDDTAVYYCARDPNEFWNGYYSTHDFDSWGQGTTVTVSSASTKGPSVFPLAPEVQLVQSGAEVKKPGASVKVSCKASGYTFTSYWMHWVRQAPGQGLEWIGNINPKGGSNIYNEKFQGRVTMTRDTSISTAYMELSRLRSDDTAVYYCARLDYFGDSFDLWGQGTTVTVSS
VL: EIVLTQSPDFQSVTPKEKVTITCRASQDIGSELHWYQQKPDQPPKLLIKYASHSTSGVPSRFSGSGSGTDFTLTINGLEAEDAGTYYCHQTDSLPYTFGPGTKVDIKRTVAAPDIQMTQSPSSLSASVGDRVTITCRASQGIRNYLNWYQQKPGKAPKLLIYYASNLEVGVPSRFSGSGSGTDYTLTISSLQPEDFATYYCQQDNRFPYTFGGGTKVEIKR
notes: DVD-Ig; also called DVD2195H; DVD2195L
- Kd [1]: 0.002 nM
- koff [1]: 4.8e-06 s⁻¹
- kon [1]: 2.4e+06 M⁻¹ s⁻¹
- Kd [2]: 0.014 nM
- koff [2]: 3.7e-05 s⁻¹
- kon [2]: 2.6e+06 M⁻¹ s⁻¹
- N-Terminal VD IL17 Neutralization Assay IC50 [3]: 0.0181 nM
- C-Terminal VD IL13 Neutralization Assay IC50 [4]: 0.052 nM

B7: DVD2197 (bispecific antibody)
VH: B5 VH
VL: B6 VL with D28N, P43S, T55I, G84A, T91S, S93T, Y96H, P100Q
notes: DVD-Ig; also called DVD2197H; DVD2197L
- Kd [1]: 0.038 nM
- koff [1]: 6.2e-05 s⁻¹
- kon [1]: 1.6e+06 M⁻¹ s⁻¹
- Kd [2]: 0.14 nM
- koff [2]: 4.4e-05 s⁻¹
- kon [2]: 310000 M⁻¹ s⁻¹
- N-Terminal VD IL17 Neutralization Assay IC50 [3]: 0.005 nM
- C-Terminal VD IL13 Neutralization Assay IC50 [4]: 0.081 nM

Results, then the binder that gave them:

- Kd [1]: < 0.0091 nM
- koff [1]: < 1e-06 s⁻¹
- kon [1]: 110000 M⁻¹ s⁻¹
- Kd [2]: 0.029 nM
- koff [2]: 6.4e-05 s⁻¹
- kon [2]: 2.2e+06 M⁻¹ s⁻¹
- C-Terminal VD IL17 Neutralization Assay IC50 [3]: 0.0551 nM
- N-Terminal VD IL13 Neutralization Assay IC50 [4]: 0.029 nM
B1: DVD2196 (bispecific antibody)
VH: EVQLVQSGAEVKKPGASVKVSCKASGYTFTSYWMHWVRQAPGQGLEWIGNINPKGGSNIYNEKFQGRVTMTRDTSISTAYMELSRLRSDDTAVYYCARLDYFGDSFDLWGQGTTVTVSSASTKGPEVQLVQSGAEVKKPGESVKISCKASGGSFRSYGISWVRQAPGQGLEWMGGITHFFGITDYAQKFQGRVTITADESTTTAYMELSGLTSDDTAVYYCAREPNDFWNGYYDTHDFDSWGQGTTVTVSS
VL: B2 VL
notes: DVD-Ig; also called DVD2196H; DVD2196L

- Kd [1]: 0.0026 nM
- koff [1]: 6.9e-06 s⁻¹
- kon [1]: 2.7e+06 M⁻¹ s⁻¹
- Kd [2]: 0.16 nM
- koff [2]: 3.8e-05 s⁻¹
- kon [2]: 230000 M⁻¹ s⁻¹
- N-Terminal VD IL17 Neutralization Assay IC50 [3]: 0.0078 nM
- C-Terminal VD IL13 Neutralization Assay IC50 [4]: 1.18 nM
B3: DVD2155 (bispecific antibody)
VH: EVQLVQSGAEVKKPGSSVKVSCKASGGSFGGYGIGWVRQAPGQGLEWMGGITPFFGFADYAQKFQGRVTITADESTTTAYMELSGLTSDDTAVYYCARDPNEFWNGYYSTHDFDSWGQGTTVTVSSASTKGPEVTLRESGPGLVKPTQTLTLTCTLYGFSLSTSDMGVDWIRQPPGKGLEWLAHIWWDDVKRYNPALKSRLTISKDTSKNQVVLKLTSVDPVDTATYYCARTVSSGYIYYAMDYWGQGTLVTVSS
VL: EIVLTQSPDFQSVTPKEKVTITCRASQDIGSELHWYQQKPDQPPKLLIKYASHSTSGVPSRFSGSGSGTDFTLTINGLEAEDAGTYYCHQTDSLPYTFGPGTKVDIKRTVAAPDIQMTQSPSSLSASVGDRVTISCRASQDIRNYLNWYQQKPGKAPKLLIFYTSKLHSGVPSRFSGSGSGTDYTLTISSLQPEDIATYYCQQGLTPPLTFGGGTKVEIKR
notes: DVD-Ig; also called DVD2155H; DVD2155L

- Kd [1]: 0.018 nM
- koff [1]: 2.6e-05 s⁻¹
- kon [1]: 1.5e+06 M⁻¹ s⁻¹
- Kd [2]: 0.21 nM
- koff [2]: 6.9e-05 s⁻¹
- kon [2]: 330000 M⁻¹ s⁻¹
- N-Terminal VD IL17 Neutralization Assay IC50 [3]: 0.0066 nM
- C-Terminal VD IL13 Neutralization Assay IC50 [4]: 0.244 nM
B4: DVD2157 (bispecific antibody)
VH: B3 VH
VL: EIVLTQSPDFQSVTPKEKVTITCRASQDIGSELHWYQQKPDQPPKLLIKYASHSTSGVPSRFSGSGSGTDFTLTINGLEAEDAGTYYCHQTDSLPYTFGPGTKVDIKRTVAAPSVFIFPPDIQMTQSPSSLSASVGDRVTISCRASQDIRNYLNWYQQKPGKAPKLLIFYTSKLHSGVPSRFSGSGSGTDYTLTISSLQPEDIATYYCQQGLTPPLTFGGGTKVEIKR
notes: DVD-Ig; also called DVD2157H; DVD2157L

- Kd [1]: 0.04 nM
- koff [1]: 6.3e-05 s⁻¹
- kon [1]: 1.6e+06 M⁻¹ s⁻¹
- Kd [2]: 0.024 nM
- koff [2]: 5.7e-05 s⁻¹
- kon [2]: 2.4e+06 M⁻¹ s⁻¹
- N-Terminal VD IL17 Neutralization Assay IC50 [3]: 0.0116 nM
- C-Terminal VD IL13 Neutralization Assay IC50 [4]: 0.092 nM
B8: DVD2201 (bispecific antibody)
VH: EVQLVQSGAEVKKPGESVKISCKASGGSFRSYGISWVRQAPGQGLEWMGGITHFFGITDYAQKFQGRVTITADESTTTAYMELSGLTSDDTAVYYCAREPNDFWNGYYDTHDFDSWGQGTTVTVSSASTKGPSVFPLAPEVQLVQSGAEVKKPGASVKVSCKASGYTFTSYWMHWVRQAPGQGLEWIGNINPKGGSNIYNEKFQGRVTMTRDTSISTAYMELSRLRSDDTAVYYCARLDYFGDSFDLWGQGTTVTVSS
VL: B6 VL with D28N, P43S, T55I, G84A, T91S, S93T, Y96H, P100Q
notes: DVD-Ig; also called DVD2201H; DVD2201L
